These results are taken from US20040018971A1 (published 2004).

Assay [1] addresses HLA-B*0702 (human). In words: competition vs 125I-labelled probe peptide, purified HLA, gel filtration. (SEC sorts molecules by how far they enter the pores of the column.)
For assay [2], the target named is HLA-B*3501 (human). The assay is described as above.
Assay [3] has as its target HLA-B*5101 (human). The assay is described as above.
The target of assay [4] is HLA-B*5301 (human). The assay is described as above.
The target of assay [5] is HLA-B*0702 (human). In words: competition with 125I probe peptide, purified HLA.
The target in assay [6] is HLA-B*3501 (human). In words: competition with 125I probe peptide, purified HLA.
The target of assay [7] is HLA-B*5101 (human). In words: competition with 125I probe peptide, purified HLA.
The target in assay [8] is HLA-B*5301 (human). Description: competition with 125I probe peptide, purified HLA.
Assay [9] addresses HLA-B*5401 (human). Description: competition with 125I probe peptide, purified HLA.
Assay [10] has as its target T1, HLA-A*0301 (purified HLA class I molecule) (human).
T1 construct: also called HLA-A3
Description: competition with 125I-labelled probe peptide for purified HLA-A*0301, gel filtration.

For assay [11], the target named is HLA-B*5401 (human). Description: competition vs 125I-labelled probe peptide, purified HLA, gel filtration.
Assay [12] concerns the target HLA-A*0301 (purified HLA class I molecule) (human). In words: competition with 125I-labelled probe peptide on purified HLA-A*0301, gel filtration.

B1: Her2/neu.1157.F1 (peptide)
peptide: FPAARPAGATL
notes: 11-mer analog of the HER2/neu peptide starting at position 1157
What is called IC50 is the concentration that inhibits the measured activity by half. A higher IC50 goes with weaker potency. For the molecule B1, the IC50 is 3.9 nM with HLA-B*0702 [1], 360 nM with HLA-B*3501 [2], 239 nM in the assay with HLA-B*5101 [3] and 2910 nM with HLA-B*5301 [4].
FPHQALLHTI (analog peptide) [Her2/neu.488.F1I10]: the IC50 was 86 nM with HLA-B*0702 [5]; 655 nM with HLA-B*3501 [6]; 19 nM in the assay with HLA-B*5101 [7]; 42 nM in the assay with HLA-B*5301 [8]; 4 nM with HLA-B*5401 [9].
Turning to FPSGVKPDI (analog peptide) [Her2/neu.600.F1I9], the IC50 worked out at 6.3 nM in the assay with HLA-B*0702 [5]; 9000 nM in the assay with HLA-B*3501 [6]; 204 nM in the assay with HLA-B*5101 [7]; 930 nM with HLA-B*5301 [8]; 44 nM with HLA-B*5401 [9].
Regarding ALTLIDTNR (also called Her2/neu.180 9-mer) [HER2/neu peptide, position 180, 9 amino acids (ALTLIDTNR)], the relative binding ratio in [10] is 0.0004 ratio (IC50 of standard peptide / IC50 of test peptide).
As to FPSETDGYI [Her2/neu.1120.F1I9], the IC50 was found to be 220 nM with HLA-B*0702 [1]; 655 nM with HLA-B*3501 [2]; 31 nM with HLA-B*5101 [3]; 37 nM with HLA-B*5301 [4]; 156 nM with HLA-B*5401 [11].
For FPSETDGYV [Her2/neu.1120.F1], in that order: 204 nM, 809 nM, 32 nM, 517 nM and 26 nM.

B2: Her2/neu.966.F1I11 (peptide)
peptide: FPRFRELVSEI
notes: 11-mer analog of the HER2/neu peptide starting at position 966
With B2, the IC50 amounted to 229 nM with HLA-B*0702 [1], 240 nM with HLA-B*3501 [2], 167 nM in the assay with HLA-B*5101 [3] and 28 nM with HLA-B*5401 [11].
With RVLQGLPREY (Synthetic peptide) [HER2/NEU A03 motif peptide, position 545, 10 amino acids], the “relative binding ratio (IC50 of standard peptide / IC50 of test peptide)” value in [12] is 0.035 ratio.
For AMPNQAQMR (also called Her2/neu.705 9-mer) [HER2/neu peptide, position 705, 9 amino acids (AMPNQAQMR)], the relative binding ratio in assay [10] is 0.0004 ratio (IC50 of standard peptide / IC50 of test peptide).
Still for that read-out and setting: the figure for CAGGCARCK (also called Her2/neu.220 9-mer) [HER2/neu peptide, position 220, 9 amino acids (CAGGCARCK)] is -0.0002 ratio (IC50 of standard peptide / IC50 of test peptide).
For RLVHRDLAAR (Synthetic peptide) [HER2/NEU A03 motif peptide, position 840, 10 amino acids], the “relative binding ratio (IC50 of standard peptide / IC50 of test peptide)” value in [12] is 0.18 ratio.
As to CVARCPSGVK (also called Her2/neu.596 10-mer) [HER2/neu peptide, position 596, 10 amino acids (CVARCPSGVK)], the relative binding ratio in assay [10] was 0.022 ratio (IC50 of standard peptide / IC50 of test peptide).
Still for that read-out and setting: the figure for ASPLDSTFY [HER2/neu peptide, position 997, 9 amino acids (ASPLDSTFY)] is 0.0002 ratio (IC50 of standard peptide / IC50 of test peptide).
On to RLLDIDETEY (Synthetic peptide) [HER2/NEU A03 motif peptide, position 868, 10 amino acids], for which the “relative binding ratio (IC50 of standard peptide / IC50 of test peptide)” value in [12] was 0.0017 ratio.
Take CVNCSQFLR (also called Her2/neu.528 9-mer) [HER2/neu peptide, position 528, 9 amino acids (CVNCSQFLR)]: in assay [10], the relative binding ratio is 0.0015 ratio (IC50 of standard peptide / IC50 of test peptide).
For RMARDPQRF (Synthetic peptide) [HER2/NEU A03 motif peptide, position 978, 9 amino acids], the “relative binding ratio (IC50 of standard peptide / IC50 of test peptide)” value in assay [12] was 0.0001 ratio.
In the case of CVTACPYNY (also called Her2/neu.295 9-mer) [HER2/neu peptide, position 295, 9 amino acids (CVTACPYNY)], the relative binding ratio in assay [10] was 0.0002 ratio (IC50 of standard peptide / IC50 of test peptide).
As for ASCVTACPY [HER2/neu peptide, position 293, 9 amino acids (ASCVTACPY)], the relative binding ratio in assay [10] is 0.0008 ratio (IC50 of standard peptide / IC50 of test peptide).

B3: Her2/neu.1151.F1I10 (peptide)
peptide: FPREGPLPAI
notes: 10-mer analog of the HER2/neu peptide starting at position 1151
As for B3, the IC50 with HLA-B*0702 [1] came out at 20 nM; in the assay with HLA-B*3501 [2], 7200 nM; in the assay with HLA-B*5101 [3] it was 20 nM; with HLA-B*5301 [4], 620 nM; with HLA-B*5401 [11] it was 3.4 nM.
In the case of CAAGCTGPK (also called Her2/neu.240 9-mer) [HER2/neu peptide, position 240, 9 amino acids (CAAGCTGPK)], the relative binding ratio in [10] was 0.0021 ratio (IC50 of standard peptide / IC50 of test peptide).
As to SMPNPEGRY (Synthetic peptide) [HER2/NEU A03 motif peptide, position 281, 9 amino acids], in [12], the “relative binding ratio (IC50 of standard peptide / IC50 of test peptide)” value came to 0.0002 ratio.

B4: HER2/NEU A03 motif peptide, position 166, 10 amino acids (peptide)
peptide: TILWKDIFHK
notes: Synthetic peptide; also called Her2/neu.166
Consider B4, for which, in [12], the “relative binding ratio (IC50 of standard peptide / IC50 of test peptide)” value was found to be 0.043 ratio.
